From patent publication US20030061635A1 (published 2003)

Key:
[1] = target: T1, Arabidopsis thaliana CaM isoform 6 (Arabidopsis thaliana, UniProt Q03509 1-149); assay: gel mobility shift, 4 M urea, CaCl2; 166 pmol CaM and 166 pmol peptide
T1 construct: Used 35S-labeled, unlabeled or HRP-labeled, depending on the assay; also called CaM6; CaM-6
Description: (§1) To determine the stoichiometry of the CaM-peptide complex, we performed binding studies using the synthetic peptide (MP-1) and CaM in the presence of Ca²⁺ or EGTA. The binding of the synthetic peptide to CaM was detected by a gel mobility shift assay in polyacrylamide gels containing 4 M urea (FIG. 4A). […] In the presence of CaCl₂ the synthetic peptide retarded the migration of CaM in the gel indicating the formation of a complex between the peptide and CaM (FIG. 4A). […] At a molar ratio of 2:1 and 4:1 (peptide:CaM), the entire CaM migrated as a complex, and the band corresponding to the free CaM disappeared (FIG. 4A, lanes 3 and 4).
(§2) The interaction of CaM with synthetic peptide was also analyzed using electrophoretic mobility shift of CaM in the presence of a synthetic peptide. Each of the AtCaM isoforms and bovine CaM (166 pmol) were incubated with increasing concentrations of maize NPG1-synthetic peptide (166, 332, and 664 pmol) in the presence of 4 M urea, in a buffer containing 100 mM Tris-HCl, pH 7.5, and 1 mM CaCl₂ or 5 mM EGTA at room temperature for 1 h in a total volume of […]. Then, […] of sample buffer (0.375 M Tris-HCl, pH 6.8, 30% glycerol, and 0.023% bromphenol blue) was added to the samples and the mixture was electrophoresed in 12% polyacrylamide gels containing 4 M urea or 7.5% glycerol, 0.375 M Tris-HCl, pH 8.8, and either 1 mM CaCl₂ or 5 mM EGTA. The gels were run at a constant voltage of 25 V per gel in an electrode buffer (25 mM Tris-HCl, pH 8.3, 192 mM glycine, and either 1 mM CaCl₂ or 5 mM EGTA). The gels were stained with 0.25% Coomassie Blue R-250 in 7.5% acetic acid and 50% methanol for 1 h and then destained with 30% methanol and 7% acetic acid.

[2] = target: T2, Arabidopsis thaliana CaM isoform 4 (Arabidopsis thaliana, UniProt P0DH96 1-149); assay: as above
T2 construct: Used 35S-labeled, unlabeled or HRP-labeled, depending on the assay; also called CaM4; CaM-4
Description: as §1, §2

[3] = target: T3, bovine CaM (calmodulin) (bovine, UniProt P62157 2-149); assay: as above
Description: as §1, §2

[4] = target: T4, Arabidopsis thaliana CaM isoform 2 (Arabidopsis thaliana, UniProt P0DH97 1-149); assay: as above
T4 construct: also called CaM2; CaM-2
Description: as §1, §2

[5] = target: T1, Arabidopsis thaliana CaM isoform 6; assay: tryptophan fluorescence spectroscopy, equimolar peptide and CaM (166 pmol each), excitation 290 nm
Method: (§3) FIG. 4A is the analysis of CaM binding to a synthetic 18-amino acid peptide (MP-1, SEQ ID NO:2) by electrophoretic mobility shift polyacrylamide gels with 4 M urea. Lane 1 contained CaM alone (166 pmol), lanes 2-4 contained CaM (166 pmol) and 166, 332 and 664 pmol, respectively of synthetic MP-1. BCaM is bovine CaM, CaM2, CaM4, and CaM6 are the 2, 4, and 6 isoforms of Arabidopsis CaM. […] CaM and MP-1 (166 pmol) were incubated in 5 mM Tris, pH 7.3 and 0.5 mM CaCl₂. The excitation was measured at 290 nm and bandwidth for excitation and emission was 5 nm.
(§4) The tryptophan fluorescence spectra of free and CaM-bound synthetic peptide were recorded with a Hitachi-F-3010/4010 spectrofluorimeter as described in Reddy et al. (1996) supra. NPG1 peptide and AtCaMs (166 pmol each) were mixed in a […] reaction volume. The tryptophan residue in free and CaM-bound synthetic NPG1 peptide was excited at 290 nm and the emission wavelength values were recorded from 300 to 400 nm with a bandwidth of 5 nm in a 5-mm quartz cell at 25° C. Samples were incubated for 1 h at 25° C. prior to spectroscopic measurements. Corrections were made for the protein and solvent blanks.

[6] = target: T2, Arabidopsis thaliana CaM isoform 4; assay: as above
Method: as §3, §4

[7] = target: T3, bovine CaM (calmodulin); assay: as above
Method: as §3, §4

[8] = target: T4, Arabidopsis thaliana CaM isoform 2; assay: as above
Method: as §3, §4

[9] = target: T1, Arabidopsis thaliana CaM isoform 6; assay: tryptophan fluorescence spectroscopy, equimolar peptide and CaM, excitation 290 nm
Method: as §3, §4

[10] = target: T2, Arabidopsis thaliana CaM isoform 4; assay: as above
Method: as §3, §4

[11] = target: T3, bovine CaM (calmodulin); assay: as above
Method: as §3, §4

[12] = target: T4, Arabidopsis thaliana CaM isoform 2; assay: as above
Method: as §3, §4

[13] = target: T1, Arabidopsis thaliana CaM isoform 6; assay: slot blot of peptide probed with 35S-labeled AtCaM isoform
[14] = target: T2, Arabidopsis thaliana CaM isoform 4; assay: as above
[15] = target: T4, Arabidopsis thaliana CaM isoform 2; assay: as above

Row | Binder | percent of CaM shifted at a molar ratio of 1:1 (peptide:CaM) [1] [%] | percent of CaM shifted at a molar ratio of 1:1 (peptide:CaM) [2] [%] | percent of CaM shifted at a molar ratio of 1:1 (peptide:CaM) [3] [%] | percent of CaM shifted at a molar ratio of 1:1 (peptide:CaM) [4] [%] | tryptophan fluorescence intensity of the peptide with CaM (free peptide about 0.1) [5] | tryptophan fluorescence intensity of the peptide with CaM (free peptide about 0.1) [6] | tryptophan fluorescence intensity of the peptide with CaM (free peptide about 0.1) [7] | tryptophan fluorescence intensity of the peptide with CaM (free peptide about 0.1) [8] | wavelength of peak tryptophan emission of the peptide with CaM (free peptide about 350 nm) [9] [nm] | wavelength of peak tryptophan emission of the peptide with CaM (free peptide about 350 nm) [10] [nm] | wavelength of peak tryptophan emission of the peptide with CaM (free peptide about 350 nm) [11] [nm] | wavelength of peak tryptophan emission of the peptide with CaM (free peptide about 350 nm) [12] [nm] | binding result [13] | binding result [14] | binding result [15]
1 | VSKGWRLLALILSAQQRF (Chemically synthesized, purity about 95%; also called the synthetic peptide; maize NPG1-synthetic peptide) [synthetic peptide MP-1 (18-amino acid CaM-binding domain of maize NPG1)] | ~50 | ~50 | ~50 | ~50 | ~6.1 | ~4.5 | ~6.1 | ~8.4 | ~315 | ~315 | ~315 | ~315 | – | – | –
2 | ISSKEMVRLKKLVAYWKEQAGKK (Positive control peptide) [KCBP-peptide (CaM-binding peptide of kinesin-like calmodulin binding protein)] | – | – | – | – | – | – | – | – | – | – | – | – | binds | binds | binds
3 | AKLDQGSLLRVKAKLKVAQSSPM [synthetic peptide MP-2 (different region of maize NPG1, negative control)] | – | – | – | – | – | – | – | – | – | – | – | – | no binding | no binding | no binding
